Laboratory results as given in patent US8975044B2, “Polynucleotides encoding for frizzled-binding agents and uses thereof” (OncoMed Pharmaceuticals, Inc., priority 2008, dated 2015).

B1: 18R5: human anti-FZD antibody; VH SEQ ID NO:10 (as 18R8), VL SEQ ID NO:14; binds FZD1, 2, 5, 7, 8 (antibody, V domains shown)
VH: EVQLVESGGGLVQPGGSLRLSCAASGFTFSHYTLSWVRQAPGKGLEWVSVISGDGSYTYYADSVKGRFTISSDNSKNTLYLQMNSLRAEDTAVYYCARNFIKYVFANWGQGTLVTVSS
VL: DIELTQPPSVSVAPGQTARISCSGDNIGSFYVHWYQQKPGQAPVLVIYDKSNRPSGIPERFSGSNSGNTATLTISGTQAEDEADYYCQSYANTLSLVFGGGTKLTVLG
modifications: 18R5/18R8 heavy chain variable region (VH); 18R5 light chain variable region (VL)
B2: 18R8: human anti-FZD antibody from phage display; VH SEQ ID NO:10, VL SEQ ID NO:12; binds FZD1, 2, 5, 7, 8 (antibody, V domains shown)
VH: B1 VH
VL: DIELTQPPSVSVAPGQTARISCSGDKLGKKYASWYQQKPGQAPVLVIYEKDNRPSGIPERFSGSNSGNTATLTISGTQAEDEADYYCSSFAGNSLEVFGGGTKLTVLG
modifications: 18R5/18R8 heavy chain variable region (VH); 18R8 light chain variable region (VL)

Experiments:
[1] = tested on: OMP-LU24 human lung tumors; experiment: OMP-LU24 lung tumor xenograft growth; type: in vivo, NOD-SCID mice; settings: antibody 10 mg/kg IP once per week, Taxol 15 mg/kg IP once per week
Protocol: 50,000 OMP-LU24 human lung tumor cells were injected subcutaneously in NOD-SCID mice. Tumors were allowed to grow for 27 days until they reached an average volume of 143 mm^3. The animals were randomized into 4 groups (n=9 per group) and treated with either control antibody (“Control Ab”), anti-FZD 18R5 (“18R5”), Taxol® (“Taxol”) or the combination of 18R5 plus Taxol® (“18R5+Taxol”). Antibodies were dosed at 10 mg/kg intraperitoneal (IP), once per week and Taxol® was dosed at 15 mg/kg, IP, once per week.

[2] = tested on: OMP-LU33 human lung tumors; experiment: OMP-LU33 lung tumor xenograft growth; type: in vivo, NOD-SCID mice; settings: antibodies 10 mg/kg IP twice per week
Protocol: 10,000 OMP-LU33 human lung tumor cells were injected subcutaneously in NOD-SCID mice. Tumors were allowed to grow for 30 days until they reached an average volume of 124 mm^3. The animals were randomized into 4 groups (n=10 per group) and treated with either control antibody (squares), Avastin® (triangles pointing down), anti-FZD 18R5 (triangles pointing up), or the combination of 18R5 plus Avastin® (circles).

[3] = tested on: ACTA2; experiment: ACTA2 gene expression in treated OMP-PN4 tumors by microarray; type: in vivo, NOD/SCID mice; settings: 10 mg/kg once a week for 6 weeks; tumor stroma
Protocol: (§1) As described in Example 7 above, OMP-PN4 tumor-bearing NOD/SCID mice were treated with control Ab (LZ-1), 18R5, gemcitabine, or the combination of 18R5 and gemcitabine once a week for 6 weeks. The antibodies were administered at a concentration of 10 mg/kg. After they were harvested, the tumors from that experiment were analyzed for the expression of Wnt target genes at both the RNA and protein levels, using microarray and IHC, respectively.
Total RNA was extracted from the tumors, amplified, and subjected to microarray analysis. Total RNAs were amplified using the Ovation RNA Amplification System V2 (NuGEN, San Carlos, Calif.). Resulting amplified, antisense ss-cDNA was fragmented and biotinylated using the FL-Ovation cDNA Biotin Module V2 (NuGEN) for use on Affymetrix chips. Affymetrix HG-U133 plus 2 or MG 430 2.0 oligonucleotide microarrays were used in these experiments (performed at Almac Diagnostics, Durham, N.C.). […] The quality of the cDNA and the fragmented cDNA were assessed by spectrophotometer and the Bioanalyzer before the array hybridization. The scanned raw chip data were quantified and scaled using the GCOS software package (Affymetrix) and subjected to a comprehensive assessment of Gene Chip Quality Control recommended by Affymetrix to detect any chips defects and outliers, which were excluded from the subsequent data analysis. […]

[4] = tested on: smooth muscle actin (SMA); experiment: Smooth Muscle Actin alpha immunofluorescence on treated OMP-PN4 tumors; type: in vivo, NOD/SCID mice; settings: 10 mg/kg once a week for 6 weeks; vs control mAb
Protocol: as §1
In preparation for Smooth Muscle Actin alpha (SMAa) immunofluorescence, tumor tissue was frozen using OCT. 4 micron sections were obtained and stored frozen at −80° C. For SMAa staining, tissue was fixed using chilled acetone at −20° C. for 15 minutes and then allowed to dry and come to room temperature and then marked using a hydrophobic PAP pen. Slides were then washed using phosphate buffered saline (PBS). Tissue was blocked using normal horse serum R.T.U. (Vector Labs) for 2 hours at room temperature. Primary antibody staining was performed with 1:10,000 dilution of FITC-conjugated Smooth muscle actin alpha antibody (cline 1A4, #F3777, SIGMA) for 1 hour. Sections were washed 3 times using PBS containing 0.1% triton X-100. Slides were then air-dried and then mounted using Hard set mounting medium containing DAPI (vectashied H-500).

[5] = tested on: Wnt signaling; experiment: 8xTCF luciferase reporter assay in STF293 cells with Wnt-overexpressing HEK293 cells; type: cell-based, human; settings: 20 μg/ml; Wnt1, Wnt2, Wnt3, Wnt7A, Wnt7B, Wnt10B, Wnt3A inhibited; 18 hours
Protocol: In further experiments, the ability of the 18R8 antibody to antagonize signaling by different Wnt ligands was determined. HEK 293 cells were transfected with Wntl, Wnt2, Wnt2b2, Wnt3, Wnt3a, Wnt7a, Wnt7b, Wnt8a, Wnt9b, and Wnt10b for forty eight hours by Fugene 6 (Roche). Wnt3A conditioned medium (“WNT3ACM”) was used as a positive control of activation. STF293 cells, were cultured in DMEM supplemented with antibiotics and 10% FCS and treated with 20 μg/ml 18R8 antibody or no antibody. The Wnt-overexpressing HEK293 cells were then added. Eighteen hours following treatment, luciferase levels were measured using a dual luciferase assay kit.

Molecule	xenograft tumor growth [1]	xenograft tumor growth [2]	ACTA2 expression [3]	Smooth Muscle Actin alpha (SMAa) amount [4]	inhibition of signaling by different Wnt ligands [5]
B1	inhibits OMP-LU24 xenograft tumor growth	inhibits OMP-LU33 xenograft tumor growth	decreased levels of ACTA2 expression	Reduced amounts of SMAa	–
B2	–	–	–	–	inhibit signaling of a variety of Wnts
